Target: T1, recombinant activated factor VII (UniProt P08709 61-212; P08709 213-466)
T1 sequence (looked up) 1: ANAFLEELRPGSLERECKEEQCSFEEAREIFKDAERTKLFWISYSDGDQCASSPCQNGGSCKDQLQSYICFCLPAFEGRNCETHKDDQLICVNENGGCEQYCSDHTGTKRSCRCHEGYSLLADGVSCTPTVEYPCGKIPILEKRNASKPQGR
T1 sequence (looked up) 2: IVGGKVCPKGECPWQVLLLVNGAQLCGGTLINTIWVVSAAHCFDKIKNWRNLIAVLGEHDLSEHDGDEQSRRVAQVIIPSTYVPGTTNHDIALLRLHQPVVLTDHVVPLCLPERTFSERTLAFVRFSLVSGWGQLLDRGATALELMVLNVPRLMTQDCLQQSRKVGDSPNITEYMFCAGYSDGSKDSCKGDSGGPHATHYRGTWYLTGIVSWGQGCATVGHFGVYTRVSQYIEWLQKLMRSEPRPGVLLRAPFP
Assay: BLI

B1: endothelial cell protein C receptor (receptor)
chain: SQDASDGLQRLHMLQISYFRDPYHVWYQGNASLGGHLTHVLEGPDTNTTIIQLQPLQEPESWARTQSGLQSYLLQFHGLVRLVHQERTLAFPLTIRCFLGCELPPEGSRAHVFFEVAVNGSSFVSFRPERALWQADTQVTSGVVTFTLQQLNAYNRTRYELREFLEDTCVQYVQKHISAENTKGSQTSRSYTS
binding result: binds
